Measured values taken from the supplement of paper PMC12042874.
± gives the uncertainty stated by the source.

Assay: amyloid nucleation score (Sup35N fusion, yeast selection) (log enrichment); library NNK1; higher = more nucleation; inactive = no reads after selection
Outline: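 Three technical output replicates were used for random libraries. Psi-negative yeast expressing peptides of 20 random codons fused to Sup35N were induced with 100 μM copper sulfate for 24 hours and grown 7 days at 30°C on medium lacking adenine and uracil, and input and output plasmid inserts were Illumina-sequenced, excluding sequences with under 100 input reads. The nucleation score is the DiMSum log enrichment of output over input reads, centred on the mode score of non-aggregating sequences.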

Q: Which amyloid nucleation score does the source give for LGGSDYVYANSFTTIGSSGV here?
A: -0.202 ± 0.21

Q: For VVYHT, which amyloid nucleation score is on record?
A: -0.368 ± 0.28

Q: With APQSRFNHEYFFENIRRVVV as the substance, how does the amyloid nucleation score read?
A: inactive

Q: For LMTRSVIVIRLMEEKSAA, which amyloid nucleation score is on record?
A: 0.163 ± 1.4

Q: Which amyloid nucleation score does the source give for MKYPENSQWKDLYGFTVQVH here?
A: 0.102 ± 0.46

Q: With RIKNGLPKGFFGKSLSPMRW as the substance, how does the amyloid nucleation score read?
A: -0.161 ± 0.8

Q: With RYFSRAVACDHNES as the substance, how does the amyloid nucleation score read?
A: -0.547 ± 0.84

Q: With GNCKGKRPSRGGRCSGQ as the substance, how does the amyloid nucleation score read?
A: 1.2 ± 0.58

Q: With VMDVFV as the substance, how does the amyloid nucleation score read?
A: -0.292 ± 0.62

Q: Which amyloid nucleation score does the source give for YLISYRLTPSYASVNDCFPD here?
A: 0.203 ± 0.46

Q: Which amyloid nucleation score does the source give for LYYNASTAIELNLEYSIKWL here?
A: 0.17 ± 0.8

Q: With RGFADLCAFEDMCIRFDESL as the substance, how does the amyloid nucleation score read?
A: 0.878 ± 0.64

Q: Which amyloid nucleation score does the source give for LNTWVGVGGWPE here?
A: -0.135 ± 0.78

Q: With VVMMWDI as the substance, how does the amyloid nucleation score read?
A: inactive

Q: With ALYSDRDI as the substance, how does the amyloid nucleation score read?
A: 0.939 ± 0.29

Q: Which amyloid nucleation score does the source give for GIGFFRCCLYRMFRYTRLSH here?
A: 0.365 ± 0.23

Q: For RLSGKFFICVGLKCVIWLRG, which amyloid nucleation score is on record?
A: -1.09 ± 0.54

Q: With KNDDTRFR as the substance, how does the amyloid nucleation score read?
A: 0.358 ± 0.31

Q: Which amyloid nucleation score does the source give for CGALWALKV here?
A: -1.04 ± 0.78

Q: With DNRVLVPRRAFNDHIWCMYV as the substance, how does the amyloid nucleation score read?
A: -0.23 ± 0.61

Q: With GLLFVKGTVDRQAWSGFEAH as the substance, how does the amyloid nucleation score read?
A: -0.796 ± 1.2

Q: Which amyloid nucleation score does the source give for LAGIVCEWWFGWVGDVQLAF here?
A: -0.604 ± 0.85

Q: For GAFNQSMDSCGFMFPHNMRP, which amyloid nucleation score is on record?
A: 0.724 ± 1

Q: For IGYITHITYSVLVL, which amyloid nucleation score is on record?
A: 0.371 ± 0.3

Q: Which amyloid nucleation score does the source give for IMGHIKM here?
A: -0.366 ± 0.44

Q: With NLLWCIVGTKPWKVLTTVNY as the substance, how does the amyloid nucleation score read?
A: -0.28 ± 0.38

Q: Which amyloid nucleation score does the source give for LLFFGYYAFDHICYAEYLSC here?
A: 2.71 ± 0.14

Q: For HLIKRYGYSCVRWVC, which amyloid nucleation score is on record?
A: 0.003 ± 0.53

Q: For IIITFLCNYFQGWNCLLVHF, which amyloid nucleation score is on record?
A: 2.35 ± 0.1

Q: Which amyloid nucleation score does the source give for DSYDLY here?
A: inactive

Q: For SQGAMFVTFMFLEYVMPQPP, which amyloid nucleation score is on record?
A: 3.95 ± 0.089

Q: Which amyloid nucleation score does the source give for LRCLYIG here?
A: -0.818 ± 0.86

Q: For LSWVVVVSNKYGQTMTCVVI, which amyloid nucleation score is on record?
A: -0.326 ± 0.5

Q: For DNRLVSSGMRRGHSGWIGGT, which amyloid nucleation score is on record?
A: 0.505 ± 0.71

Q: Which amyloid nucleation score does the source give for LSGTTLIPEYILRSSNPSI here?
A: 0.147 ± 1.6

Q: With WSNPPITCSSVGINHHVSVV as the substance, how does the amyloid nucleation score read?
A: -0.171 ± 0.33

Q: With MCFDGICMNWWVR as the substance, how does the amyloid nucleation score read?
A: 2.96 ± 0.086

Q: With QLTSVSIFWYPF as the substance, how does the amyloid nucleation score read?
A: -1.46 ± 2.4

Q: For YHKRVNFSVRAGCCC, which amyloid nucleation score is on record?
A: 1.29 ± 0.43

Q: Which amyloid nucleation score does the source give for NEVPCVRRWSCRGLCARELM here?
A: 0.429 ± 0.88

Q: Which amyloid nucleation score does the source give for SCGLYFAGVEVGGAVSLCKG here?
A: 0 ± 0.48

Q: With VMGNTDVVSDVSWVKCQKLK as the substance, how does the amyloid nucleation score read?
A: 0.328 ± 0.32

Q: With LNLGGSF as the substance, how does the amyloid nucleation score read?
A: inactive

Q: Which amyloid nucleation score does the source give for YEMVRGCLNMSMMTDKFRAE here?
A: 0.851 ± 0.67

Q: With SESYEFVVHLHMESLRKLN as the substance, how does the amyloid nucleation score read?
A: -0.245 ± 0.71

Q: Which amyloid nucleation score does the source give for FIKHGNLSAKQPVEKDLKLD here?
A: 0.414 ± 0.46

Q: With WLVHFDHTPNTSL as the substance, how does the amyloid nucleation score read?
A: -0.069 ± 0.53

Q: Which amyloid nucleation score does the source give for SRMGPGNYWANGKSFAARPP here?
A: -0.491 ± 1.4

Q: For ICYNKSSP, which amyloid nucleation score is on record?
A: -0.097 ± 1.2

Q: With HVHVTACCRLM as the substance, how does the amyloid nucleation score read?
A: 7.44 ± 0.077

Q: Which amyloid nucleation score does the source give for HARIS here?
A: -0.313 ± 0.79

Q: With YKEQGTPHLLYADYEARRDG as the substance, how does the amyloid nucleation score read?
A: 0.791 ± 0.66

Q: Which amyloid nucleation score does the source give for VFVICCKRREAG here?
A: -0.295 ± 0.34

Q: With DFENWPVRLWYFKTIFLRS as the substance, how does the amyloid nucleation score read?
A: 1.93 ± 0.51

Q: For PYRFSYKVVESSICDNLRRR, which amyloid nucleation score is on record?
A: -0.094 ± 0.35

Q: Which amyloid nucleation score does the source give for FINWLPNNDHFFCRNWICLQ here?
A: 5.902 ± 0.05

Q: With FHSMDEHVLLILTKNSV as the substance, how does the amyloid nucleation score read?
A: 0.317 ± 0.6

Q: With YRFWEI as the substance, how does the amyloid nucleation score read?
A: -0.25 ± 0.35

Q: With HRRLRMRT as the substance, how does the amyloid nucleation score read?
A: -0.469 ± 0.79

Q: Which amyloid nucleation score does the source give for WDSLVLGKLYKLIFDQASPV here?
A: -1.31 ± 1.3

Q: With VTRCVAVAFSLGYLVIKCAL as the substance, how does the amyloid nucleation score read?
A: -0.243 ± 0.76

Q: For VFNVV, which amyloid nucleation score is on record?
A: -0.605 ± 0.52

Q: For RALVDRLSTS, which amyloid nucleation score is on record?
A: 0.472 ± 0.82

Q: Which amyloid nucleation score does the source give for WTVSWHIVGYSRVDVMKRTK here?
A: inactive

Q: For ITKLIVSFQGFFV, which amyloid nucleation score is on record?
A: 4.24 ± 0.12

Q: Which amyloid nucleation score does the source give for HHSRIFICDLRWSSTVRHCK here?
A: 1.39 ± 0.16

Q: With NGTRYMEAIMEKSLC as the substance, how does the amyloid nucleation score read?
A: 1.47 ± 0.4

Q: With RLCKKSIHRDVASRFPNEDV as the substance, how does the amyloid nucleation score read?
A: 1.02 ± 0.36

Q: With INVIYNICFQVSW as the substance, how does the amyloid nucleation score read?
A: 8.413 ± 0.052

Q: Which amyloid nucleation score does the source give for IPKCMYGRDRICLMLVAFEN here?
A: 1.79 ± 0.28

Q: For ITSRVQFRETHTYIMYLEAW, which amyloid nucleation score is on record?
A: 0.138 ± 0.43

Q: Which amyloid nucleation score does the source give for QDITPYWIVIGYD here?
A: -0.367 ± 0.29

Q: With WFFAAVWVLEFYEFR as the substance, how does the amyloid nucleation score read?
A: -0.432 ± 0.3

Q: With YCDVSTYMSEHTISVAQAQS as the substance, how does the amyloid nucleation score read?
A: 0.284 ± 0.41

Q: For FNLFVTFSMLRPWSAVPMLA, which amyloid nucleation score is on record?
A: 0.338 ± 0.81

Q: With SRFDGTNIVCSSGMWFCAWK as the substance, how does the amyloid nucleation score read?
A: 8.35 ± 0.045

Q: Which amyloid nucleation score does the source give for RDAIYYKICLAQPRSF here?
A: -0.465 ± 0.38

Q: With PRRMKT as the substance, how does the amyloid nucleation score read?
A: 0.15 ± 0.33

Q: For NYETPGRFDKSVSTGEAFQS, which amyloid nucleation score is on record?
A: -0.868 ± 0.55

Q: Which amyloid nucleation score does the source give for TGICLWLPAVVDAEES here?
A: -0.34 ± 0.35

Q: With VHNPSVNDLYFLVICCVYLF as the substance, how does the amyloid nucleation score read?
A: 0.484 ± 0.26

Q: With GGECYLLEYLSMSGVYCFRI as the substance, how does the amyloid nucleation score read?
A: -1.25 ± 1.4

Q: With RQGSDGVSSRKLWFFVRIAI as the substance, how does the amyloid nucleation score read?
A: -0.383 ± 1.7

Q: With LGHGGVR as the substance, how does the amyloid nucleation score read?
A: 0.566 ± 0.28

Q: For YTCSVGDVMINDSETSSKAG, which amyloid nucleation score is on record?
A: 0.053 ± 0.24

Q: With SWAIRALKFVWIA as the substance, how does the amyloid nucleation score read?
A: -0.323 ± 0.93

Q: For WLCTMLYVVVIRGCNVGNLE, which amyloid nucleation score is on record?
A: -0.393 ± 0.65

Q: With SPRSLMKGVITTHIIG as the substance, how does the amyloid nucleation score read?
A: 0.917 ± 0.4
